Measured values: patent US20140058068A1 (UNIVERSITY OF MIAMI, published 2014)
Square brackets hold non-standard residues; d marks the D form. Ends that are not written are not given here. * marks the point of attachment. Desaminotyrosyl = O=C(CCc1ccc(O)cc1)*; NMeY = CN[C@@H](Cc1ccc(O)cc1)C(=O)O; hArg = N=C(N)NCCCC[C@H](N)C(=O)O; Agmatine = N=C(N)NCCCCN*; Nle = CCCC[C@H](N)C(=O)O; Orn = NCCC[C@H](N)C(=O)O; Abu = CC[C@H](N)C(=O)O; GABA = NCCCC(=O)O

Experiments:
[1] = molecular target: GHRH receptor of human pituitary membrane homogenates (human) (UniProt Q02643); assay: radioligand competition, 125I-JV-1-42 (~0.2 nM) as competitor, human pituitary membrane homogenates
[2] = molecular target: GHRH receptor of human pituitary membrane homogenates (human) (UniProt Q02643); assay: as above; remark: listed apart in the source
[3] = molecular target: GHRH receptor of human pituitary membrane homogenates (human) (UniProt Q02643); assay: radioligand competition, [His1,125I-Tyr10,Nle27]hGHRH(1-32)NH2 (0.2 nM) as competitor, human pituitary membrane homogenates
[4] = molecular target: T1, GHRH receptor of human pituitary membrane homogenates (human, UniProt Q02643 23-423); assay: as above
T1 construct: whole, on cells; Native receptor in pituitary membrane homogenates, not intact cells; also called hGH-RH receptor
T1 sequence (looked up): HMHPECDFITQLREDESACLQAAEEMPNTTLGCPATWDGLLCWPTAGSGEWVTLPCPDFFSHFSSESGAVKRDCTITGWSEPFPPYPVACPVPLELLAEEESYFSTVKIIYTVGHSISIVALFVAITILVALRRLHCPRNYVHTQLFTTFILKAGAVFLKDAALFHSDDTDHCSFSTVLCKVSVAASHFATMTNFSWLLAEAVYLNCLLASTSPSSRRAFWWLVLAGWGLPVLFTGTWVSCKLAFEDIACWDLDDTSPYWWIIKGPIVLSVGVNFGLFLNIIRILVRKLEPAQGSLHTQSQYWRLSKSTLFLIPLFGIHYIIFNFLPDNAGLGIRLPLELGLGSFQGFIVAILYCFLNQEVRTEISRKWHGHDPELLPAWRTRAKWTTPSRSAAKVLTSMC
Source text: Normal human pituitaries were purchased from the National Hormone and Peptide Program (A. F. Parlow, Los Angeles, County Harbor—UCLA Medical Center, Torrance, Calif.).

[5] = molecular target: T1, GHRH receptor of human pituitary …; assay: radioligand competition, 125I-JV-1-42 (~0.2 nM) as competitor, human pituitary membrane homogenates
Source text: (§1) Normal human pituitaries were purchased from the National Hormone and Peptide Program (A. F. Parlow, Los Angeles, County Harbor-UCLA Medical Center, Torrance, Calif.).

[6] = molecular target: T1, GHRH receptor of human pituitary …; assay: as above; remark: listed apart in the source
Protocol: as §1
The final binding affinities were expressed as IC₅₀ values and were calculated by using the LIGAND PC computerized curve-fitting program of Munson and Rodbard as modified by McPherson.

**Q.** For “[Dat^1, D-Ala^2, Gln^8, Orn^12, Abu^15, Orn^21, Nle^27, Asp^28, Agm^29]hGH-RH(1-29) (from UniProt P01286 32-60) (peptide)”, which IC50 [1] is on record?
**A.** 0.04 nM

**Q.** And the Relative affinity (Binding potency) vs GHRH (fold, GHRH(1-29) = 1) [1]?
**A.** 102

**Q.** And the Relative affinity (Binding potency) vs JI-38 (fold, JI-38 = 1) [1]?
**A.** 42.7

**Q.** What about the IC50 [2] of the same molecule?
**A.** 0.52 nM

**Q.** What about the Relative affinity (Binding potency) vs JI-38 (fold, JI-38 = 1) [2] of the same molecule?
**A.** 8.37

**Q.** For “[Dat^1, D-Ala^2, Fpa5^6, Orn^12, Abu^15, Orn^21, Nle^27, Gab^30]hGH-RH(1-30)NH2 (from UniProt P01286 32-61) (peptide)”, which IC50 [1] is on record?
**A.** 0.07 nM

**Q.** And the Relative affinity (Binding potency) vs GHRH (fold, GHRH(1-29) = 1) [1]?
**A.** 58

**Q.** What about the Relative affinity (Binding potency) vs JI-38 (fold, JI-38 = 1) [1] of the same molecule?
**A.** 24.4

**Q.** And the IC50 [2]?
**A.** 0.33 nM

**Q.** And the Relative affinity (Binding potency) vs JI-38 (fold, JI-38 = 1) [2]?
**A.** 13.2

**Q.** How did the IC50 [3] turn out when “[Dat^1, D-Ala^2, Gln^8, Orn^12, Abu^15, Orn^21, Nle^27, Asp^28, Amc^30]hGH-RH(1-30)NH2 (from UniProt P01286 32-61) (peptide)” was run?
**A.** 0.08 nM

**Q.** What about the Relative affinity (Binding potency) vs GHRH (fold, GHRH(1-29) = 1) [3] of the same molecule?
**A.** 74

**Q.** What about the Relative affinity (Binding potency) vs JI-38 (fold, JI-38 = 1) [3] of the same molecule?
**A.** 24.4

B1: [Dat^1, D-Ala^2, Thr^8, Orn^12, Abu^15, Orn^21, Nle^27, Asp^28, Har^30]hGH-RH(1-30)NH2 (peptide)
chain: [Desaminotyrosyl][dA]DAIFTTSYR[Orn]VL[Abu]QLSAR[Orn]LLQDI[Nle]DR[hArg]-NH2
SMILES: CCCC[C@H](NC(=O)[C@@H](NC(=O)[C@H](CC(=O)O)NC(=O)[C@H](CCC(N)=O)NC(=O)[C@H](CC(C)C)NC(=O)[C@H](CC(C)C)NC(=O)[C@H](CCCN)NC(=O)[C@H](CCCNC(=N)N)NC(=O)[C@H](C)NC(=O)[C@H](CO)NC(=O)[C@H](CC(C)C)NC(=O)[C@H](CCC(N)=O)NC(=O)[C@H](CC)NC(=O)[C@H](CC(C)C)NC(=O)[C@@H](NC(=O)[C@H](CCCN)NC(=O)[C@H](CCCNC(=N)N)NC(=O)[C@H](Cc1ccc(O)cc1)NC(=O)[C@H](CO)NC(=O)[C@@H](NC(=O)[C@@H](NC(=O)[C@H](Cc1ccccc1)NC(=O)[C@@H](NC(=O)[C@H](C)NC(=O)[C@H](CC(=O)O)NC(=O)[C@@H](C)NC(=O)CCc1ccc(O)cc1)[C@@H](C)CC)[C@@H](C)O)[C@@H](C)O)C(C)C)[C@@H](C)CC)C(=O)N[C@@H](CC(=O)O)C(=O)N[C@@H](CCCNC(=N)N)C(=O)N[C@@H](CCCCNC(=N)N)C(N)=O
**Q.** For B1, which IC50 [4] is on record?
**A.** 0.07 nM

**Q.** What about the “Relative affinity (Binding potency) vs GHRH” value [4] of the same molecule?
**A.** 84.5 fold, GHRH(1-29) = 1

**Q.** And the “Relative affinity (Binding potency) vs JI-38” value [4]?
**A.** 27.8 fold, JI-38 = 1

B2: [Dat^1, D-Ala^2, Orn^12, Abu^15, Orn^21, Nle^27, Gln-Gab^30]hGH-RH(1-30)NH2 (peptide)
peptide: [Desaminotyrosyl][dA]DAIFTNSYR[Orn]VL[Abu]QLSAR[Orn]LLQDI[Nle]SRQ[GABA]-NH2
SMILES: CCCC[C@H](NC(=O)[C@@H](NC(=O)[C@H](CC(=O)O)NC(=O)[C@H](CCC(N)=O)NC(=O)[C@H](CC(C)C)NC(=O)[C@H](CC(C)C)NC(=O)[C@H](CCCN)NC(=O)[C@H](CCCNC(=N)N)NC(=O)[C@H](C)NC(=O)[C@H](CO)NC(=O)[C@H](CC(C)C)NC(=O)[C@H](CCC(N)=O)NC(=O)[C@H](CC)NC(=O)[C@H](CC(C)C)NC(=O)[C@@H](NC(=O)[C@H](CCCN)NC(=O)[C@H](CCCNC(=N)N)NC(=O)[C@H](Cc1ccc(O)cc1)NC(=O)[C@H](CO)NC(=O)[C@H](CC(N)=O)NC(=O)[C@@H](NC(=O)[C@H](Cc1ccccc1)NC(=O)[C@@H](NC(=O)[C@H](C)NC(=O)[C@H](CC(=O)O)NC(=O)[C@@H](C)NC(=O)CCc1ccc(O)cc1)[C@@H](C)CC)[C@@H](C)O)C(C)C)[C@@H](C)CC)C(=O)N[C@@H](CO)C(=O)N[C@@H](CCCNC(=N)N)C(=O)N[C@@H](CCC(N)=O)C(=O)NCCCC(N)=O
notes: T0009 prints Asn^s for Asn^8; also called P29702
**Q.** How did the IC50 [5] turn out when B2 was run?
**A.** 0.86 nM

**Q.** And the “Relative affinity (Binding potency) vs JI-38” value [5]?
**A.** 5.06 fold, JI-38 = 1

**Q.** What about the IC50 [6] of the same molecule?
**A.** 0.05 nM

**Q.** And the “Relative affinity (Binding potency) vs GHRH” value [6]?
**A.** 81.2 fold, GHRH(1-29) = 1

**Q.** What about the “Relative affinity (Binding potency) vs JI-38” value [6] of the same molecule?
**A.** 34.2 fold, JI-38 = 1

B3: [Dat^1, D-Ala^2, Ala^8, Orn^12, Abu^15, Orn^21, Nle^27, Asp^28, Har^30]hGH-RH(1-30)NH2 (peptide)
chain: [Desaminotyrosyl][dA]DAIFTASYR[Orn]VL[Abu]QLSAR[Orn]LLQDI[Nle]DR[hArg]-NH2
SMILES: CCCC[C@H](NC(=O)[C@@H](NC(=O)[C@H](CC(=O)O)NC(=O)[C@H](CCC(N)=O)NC(=O)[C@H](CC(C)C)NC(=O)[C@H](CC(C)C)NC(=O)[C@H](CCCN)NC(=O)[C@H](CCCNC(=N)N)NC(=O)[C@H](C)NC(=O)[C@H](CO)NC(=O)[C@H](CC(C)C)NC(=O)[C@H](CCC(N)=O)NC(=O)[C@H](CC)NC(=O)[C@H](CC(C)C)NC(=O)[C@@H](NC(=O)[C@H](CCCN)NC(=O)[C@H](CCCNC(=N)N)NC(=O)[C@H](Cc1ccc(O)cc1)NC(=O)[C@H](CO)NC(=O)[C@H](C)NC(=O)[C@@H](NC(=O)[C@H](Cc1ccccc1)NC(=O)[C@@H](NC(=O)[C@H](C)NC(=O)[C@H](CC(=O)O)NC(=O)[C@@H](C)NC(=O)CCc1ccc(O)cc1)[C@@H](C)CC)[C@@H](C)O)C(C)C)[C@@H](C)CC)C(=O)N[C@@H](CC(=O)O)C(=O)N[C@@H](CCCNC(=N)N)C(=O)N[C@@H](CCCCNC(=N)N)C(N)=O
**Q.** B3 was tested. Which IC50 [4] did it give?
**A.** 0.04 nM

**Q.** And the “Relative affinity (Binding potency) vs GHRH” value [4]?
**A.** 148 fold, GHRH(1-29) = 1

**Q.** What about the “Relative affinity (Binding potency) vs JI-38” value [4] of the same molecule?
**A.** 48.7 fold, JI-38 = 1

B4: [N-Me-Tyr^1, Gln^8, Orn^12, Abu^15, Orn^21, Nle^27, Asp^28, Agm^29]hGH-RH(1-29) (peptide)
peptide: [NMeY]ADAIFTQSYR[Orn]VL[Abu]QLSAR[Orn]LLQDI[Nle]D[Agmatine]
notes: also called P20356
**Q.** B4 was tested. Which IC50 [5] did it give?
**A.** 0.27 nM

**Q.** What about the “Relative affinity (Binding potency) vs JI-38” value [5] of the same molecule?
**A.** 16.1 fold, JI-38 = 1

**Q.** What about the IC50 [6] of the same molecule?
**A.** 0.01 nM

**Q.** And the “Relative affinity (Binding potency) vs GHRH” value [6]?
**A.** 406 fold, GHRH(1-29) = 1

**Q.** And the “Relative affinity (Binding potency) vs JI-38” value [6]?
**A.** 171 fold, JI-38 = 1
